# Laboratory results taken from patent publication US20150266922.
# Target: SUMO1 (UniProt P63165)
# Sequence (P63165 1-97): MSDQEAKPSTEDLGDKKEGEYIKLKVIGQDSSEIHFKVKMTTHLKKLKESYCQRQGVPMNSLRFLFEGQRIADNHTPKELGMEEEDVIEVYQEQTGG
substance,measurement,value
recombinant DPP9V285A (insect cells),hydrolysis of GP-AMC by DPP9 V285A,the SUBA mutant DPP9V285A was not activated by SUMO1
